Two molecules from US20150361183A1 (IMPERIAL INNOVATIONS, published 2015) can be followed below.

The data set “X-ray crystal structure” concerns the molecule itself. The data set is described as follows: X-ray crystal structure. As for the experimental part:
Crystals were grown using the sitting drop vapour diffusion method from 0.2 μL, protein+0.2 μL mother liquor drops at […] using protein stocks at A280=3.3 and 7.8 for CFHR112 and CFHR234 respectively. CFHR112 crystals grew from a mother liquor containing 36% PEG 2000 MME, 0.1M MES pH 6.5. CFHR234 crystals grew in 30% PEG 8000, 0.2M ammonium sulphate. Crystals were plunge cooled in liquid nitrogen following cryoprotection in 20% and 15% ethylene glycol for CFHR112 and CFHR234, respectively. Data were collected at both the ESRF and DIAMOND using the rotation method with oscillation ranges of 0.150 or 0.20 at 120 K. CFHR112 data were collected at beamline ID29 (ESRF, Grenoble) with λ=1.7105 Å. CFHR234 data were collected at beamline I04-1 (DIAMOND, UK) with λ=0.9173 Å. Data were integrated and scaled using XIA2 19 with the −3dii option to enforce usage of XDS 20 for integration and SCALA for scaling 21.

The target of the next data set is T1, C5 (UniProt P01031 19-673; P01031 678-1676, limits assumed).
T1 construct: also called complement C5
T1 sequence (P01031 19-673 limits assumed, chain 1 of 2): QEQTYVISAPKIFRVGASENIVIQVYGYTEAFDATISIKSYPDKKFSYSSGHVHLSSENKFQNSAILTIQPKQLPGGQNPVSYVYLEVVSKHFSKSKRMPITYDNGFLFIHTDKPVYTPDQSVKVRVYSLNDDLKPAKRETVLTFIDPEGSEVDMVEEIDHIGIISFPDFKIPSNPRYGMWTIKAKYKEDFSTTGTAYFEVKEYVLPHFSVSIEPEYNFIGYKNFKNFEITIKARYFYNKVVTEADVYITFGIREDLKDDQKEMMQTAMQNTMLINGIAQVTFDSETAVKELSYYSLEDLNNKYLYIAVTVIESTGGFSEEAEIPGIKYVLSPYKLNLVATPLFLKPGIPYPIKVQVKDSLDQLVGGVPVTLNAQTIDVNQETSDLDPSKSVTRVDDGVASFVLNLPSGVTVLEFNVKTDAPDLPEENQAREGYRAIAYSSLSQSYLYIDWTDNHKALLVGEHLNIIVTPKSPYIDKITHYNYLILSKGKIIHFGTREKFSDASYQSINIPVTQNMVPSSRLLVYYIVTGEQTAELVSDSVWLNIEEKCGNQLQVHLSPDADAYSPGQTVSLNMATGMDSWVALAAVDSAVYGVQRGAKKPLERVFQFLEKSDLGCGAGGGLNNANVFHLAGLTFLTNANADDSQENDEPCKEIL
T1 sequence (P01031 678-1676 limits assumed, chain 2 of 2): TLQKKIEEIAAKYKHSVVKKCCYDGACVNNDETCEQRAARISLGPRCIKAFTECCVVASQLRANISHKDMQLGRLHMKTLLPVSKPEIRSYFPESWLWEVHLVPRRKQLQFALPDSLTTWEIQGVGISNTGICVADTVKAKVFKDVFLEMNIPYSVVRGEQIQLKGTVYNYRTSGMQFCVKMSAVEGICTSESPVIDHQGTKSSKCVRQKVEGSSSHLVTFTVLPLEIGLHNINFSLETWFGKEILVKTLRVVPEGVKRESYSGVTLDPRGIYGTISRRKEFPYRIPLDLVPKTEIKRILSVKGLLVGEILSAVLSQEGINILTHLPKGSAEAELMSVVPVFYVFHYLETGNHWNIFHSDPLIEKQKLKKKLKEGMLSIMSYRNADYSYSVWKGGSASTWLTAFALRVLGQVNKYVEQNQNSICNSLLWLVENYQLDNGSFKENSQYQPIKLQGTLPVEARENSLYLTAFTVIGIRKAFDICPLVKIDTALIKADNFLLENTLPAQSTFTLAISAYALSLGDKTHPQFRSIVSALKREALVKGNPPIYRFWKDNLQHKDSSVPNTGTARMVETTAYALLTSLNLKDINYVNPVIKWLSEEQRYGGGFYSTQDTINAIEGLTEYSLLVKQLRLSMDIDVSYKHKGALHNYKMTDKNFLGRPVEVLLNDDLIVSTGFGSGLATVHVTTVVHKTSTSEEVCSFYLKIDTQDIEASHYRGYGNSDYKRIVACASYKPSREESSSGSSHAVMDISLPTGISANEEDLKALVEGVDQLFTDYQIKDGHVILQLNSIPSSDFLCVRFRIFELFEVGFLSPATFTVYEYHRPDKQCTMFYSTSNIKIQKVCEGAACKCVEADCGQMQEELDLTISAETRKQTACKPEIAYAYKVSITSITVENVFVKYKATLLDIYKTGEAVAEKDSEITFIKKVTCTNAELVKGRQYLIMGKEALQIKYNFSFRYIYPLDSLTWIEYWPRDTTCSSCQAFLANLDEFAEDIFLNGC
The data set is described as follows: SPR, CFHR112 immobilised (750 RU), C5 flowed. A general note: SPR reads the build-up and loss of mass on a sensor chip optically.

Data set [1] concerns the molecule itself. Put plainly: MALS / size exclusion chromatography. From the text: FIG. 3(a) Generation of a CFHR5 protein lacking critical amino acids within the dimerisation motif. Monomeric CFHR5 (CFHR5^{dimer mutant}) was generated by mutating the three stabilizing amino acids (Tyr34Ser, Ser36 Tyr, Tyr39Glu) within the dimerisation motif to the corresponding amino acids within CFH. FIG. 3(b) Analysis of recombinant CFHR5 and CFHR5^{dimer mutant} using SDS PAGE gel electrophoresis. Both the wild type and dimer mutants were purified to single homogenous species as visualized by denaturing electrophoresis. FIG. 3(c) Analysis of recombinant CFHR5 and CFHR5^{dimer mutant} using size exclusion chromatography. Size exclusion chromatography was performed on a Superdex200 10/30 column (GE Healthcare) equilibrated in 50 mM Tris.HCl, pH 7.5, 150 mM NaCl at 0.4 ml/min. The column was followed in-line by an Optilab-Rex refractive index monitor (Wyatt Technologies). The CFHR5 dimer elutes early from the column (blue trace) whilst the monomeric CFHR5^{dimer mutant} protein elutes at a larger column volume (red trace). FIG. 3(d) Interaction of CFHR5 and CFHR5^{dimer mutant} with renal-bound mouse C3 in vivo.
The inventors next explored the functional consequences of dimerisation. They predicted that dimerisation would enhance ligand interaction through avidity. To test this they generated monomeric and dimeric CFHR5 proteins. […]
A general note: Size exclusion chromatography separates by hydrodynamic size, large species first.

B1: CFHR112 (recombinant first two SCR domains of CFHR1) (other)
chain: EATFCDFPKINHGILYDEEKYKPFSQVPTGEVFYYSCEYNFVSPSKSFWTRITCTEEGWSPTPKCLRLCFFPFVENGHSESSGQTHLEGDTVQIICNTGYRLQNNENNISCVERGWSTPPKCRST
notes: Head-to-tail homodimer in crystal and in solution; also called CFHR1,2; recombinant CFHR1 domains 1 and 2
Take B1: the values for the binding result in “X-ray crystal structure” and with C5 were “binds” and “no binding”, respectively.

B2: CFHR5 dimer mutant (Tyr34Ser, Ser36Tyr, Tyr39Glu) (other)
chain: EGTLCDFPKIHHGFLYDEEDYNPFSQVPTGEVFSYYCEENFVSPSKSFWTRITCTEEGWSPTPKCLRMCSFPFVKNGHSESSGLIHLEGDTVQIICNTGYSLQNNEKNISCVERGWSTPPICSFTKGECHVPILEANVDAQPKKESYKVGDVLKFSCRKNLIRVGSDSVQCYQFGWSPNFPTCKGQVRSCGPPPQLSNGEVKEIRKEEYGHNEVVEYDCNPNFIINGPKKIQCVDGEWTTLPTCVEQVKTCGYIPELEYGYVQPSVPPYQHGVSVEVNCRNEYAMIGNNMITCINGIWTELPMCVATHQLKRCKIAGVNIKTLLKLSGKEFNHNSRIRYRCSDIFRYRHSVCINGKWNPEVDCTEKREQFCPPPPQIPNAQNMTTTVNYQDGEKVAVLCKENYLLPEAKEIVCKDGRWQSLPRCVESTAYCGPPPSINNGDTTSFPLSVYPPGSTVTYRCQSFYKLQGSVTVTCRNKQWSEPPRCLDPCVVSEENMNKNNIQLKWRNDGKLYAKTGDAVEFQCKFPHKAMISSPPFRAICQEGKFEYPICE
notes: also called monomeric CFHR5
In the case of B2, the binding result in data set [1] is “no binding”.
